Results from patent US20100081621.

Biological target: APOBEC3G D316R/D317R D316R,D317R (Homo sapiens) (UniProt Q9HC16)
Details: deamination; middle and 3' C deaminated at about same rate

Chain of APOBEC3G D316R/D317R D316R,D317R (Homo sapiens) (Q9HC16 whole entry D316R/D317R): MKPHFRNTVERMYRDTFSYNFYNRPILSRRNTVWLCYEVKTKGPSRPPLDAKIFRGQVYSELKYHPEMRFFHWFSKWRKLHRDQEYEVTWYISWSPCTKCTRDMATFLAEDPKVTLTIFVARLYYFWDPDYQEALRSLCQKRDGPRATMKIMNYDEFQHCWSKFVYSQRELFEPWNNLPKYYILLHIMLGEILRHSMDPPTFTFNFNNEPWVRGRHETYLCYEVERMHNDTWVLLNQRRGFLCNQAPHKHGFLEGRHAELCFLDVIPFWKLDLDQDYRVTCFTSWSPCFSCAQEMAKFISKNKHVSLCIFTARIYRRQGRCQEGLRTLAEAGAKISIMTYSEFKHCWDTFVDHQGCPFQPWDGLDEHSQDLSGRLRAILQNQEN

With “FdT ssDNA deamination substrate with CCC motif” the activity was 1.6 fold of wt.
